Measured values: US20240336672A1

What was measured:
Settings in all cases: remark: other sources report otherwise
[1] = target: SARS-CoV-2 RBD (P.1) domain (SARS-CoV-2); assay: ELISA
[2] = target: SARS-CoV-2 RBD (B.1.1.7) domain (SARS-CoV-2); assay: ELISA; design: unit not given beside the values
[3] = target: SARS-CoV-2 RBD (B.1.351) domain (SARS-CoV-2); assay: ELISA; design: unit not given beside the values
[4] = target: SARS-CoV-2 RBD (P.1) domain (SARS-CoV-2); assay: ELISA; design: unit not given beside the values
[5] = target: T1, SARS-CoV-2 Spike ectodomain (tri-S), Wuhan (SARS-CoV-2), P0DTC2; assay: tri-S capture ELISA
[6] = target: T1, SARS-CoV-2 Spike ectodomain (tri-S), …; assay: ELISA, coated antigen
[7] = target: T1, SARS-CoV-2 Spike ectodomain (tri-S), …; assay: SPR (Biacore), antibody immobilised
[8] = target: SARS-CoV-2 RBD (B.1.1.7) domain (SARS-CoV-2); assay: RBD-ACE2 competition ELISA; design: unit not given beside the values
[9] = target: SARS-CoV-2 RBD (B.1.351) domain (SARS-CoV-2); assay: RBD-ACE2 competition ELISA; design: unit not given beside the values
[10] = target: SARS-CoV-2 RBD (P.1) domain (SARS-CoV-2); assay: RBD-ACE2 competition ELISA; design: unit not given beside the values
[11] = target: SARS-CoV-2 RBD (B.1.1.7) domain (SARS-CoV-2); assay: RBD-ACE2 competition ELISA; design: unit not given beside the values; remark: listed apart in the source
[12] = target: SARS-CoV-2 RBD (B.1.351) domain (SARS-CoV-2); assay: RBD-ACE2 competition ELISA; design: unit not given beside the values; remark: listed apart in the source
[13] = target: SARS-CoV-2 RBD (P.1) domain (SARS-CoV-2); assay: RBD-ACE2 competition ELISA; design: unit not given beside the values; remark: listed apart in the source
[14] = target: T1, SARS-CoV-2 Spike ectodomain (tri-S), …; assay: competition ELISA vs bio-Cv2.1169
[15] = target: T1, SARS-CoV-2 Spike ectodomain (tri-S), …; assay: competition ELISA vs bio-Cv2.1353
[16] = target: T1, SARS-CoV-2 Spike ectodomain (tri-S), …; assay: competition ELISA vs bio-Cv2.3194
[17] = target: T1, SARS-CoV-2 Spike ectodomain (tri-S), …; assay: competition ELISA vs bio-Cv2.3235
[18] = target: T1, SARS-CoV-2 Spike ectodomain (tri-S), …; assay: competition ELISA vs bio-Cv2.5213
[19] = target: T1, SARS-CoV-2 Spike ectodomain (tri-S), …; assay: tri-S/ACE2 blocking ELISA [B]
[20] = target: T1, SARS-CoV-2 Spike ectodomain (tri-S), …; assay: competition ELISA, spike protein binding to ACE2 ectodomain
[21] = target: T1, SARS-CoV-2 Spike ectodomain (tri-S), …; assay: biotinylated tri-S on immobilised ACE2, competition ELISA
[22] = target: SARS-CoV-2 RBD (B.1.1.7) domain (SARS-CoV-2); assay: ELISA; design: unit not given beside the values; remark: listed apart in the source
[23] = target: SARS-CoV-2 RBD (B.1.351) domain (SARS-CoV-2); assay: ELISA; design: unit not given beside the values; remark: listed apart in the source
[24] = target: SARS-CoV-2 RBD (P.1) domain (SARS-CoV-2); assay: ELISA; design: unit not given beside the values; remark: listed apart in the source
[25] = target: SARS-CoV-2 RBD (B.1.1.7) domain (SARS-CoV-2); assay: RBD/ACE2 blocking ELISA
[26] = target: SARS-CoV-2 RBD (B.1.351) domain (SARS-CoV-2); assay: RBD/ACE2 blocking ELISA
[27] = target: SARS-CoV-2 RBD (P.1) domain (SARS-CoV-2); assay: RBD/ACE2 blocking ELISA
[28] = target: T1, SARS-CoV-2 Spike ectodomain (tri-S), …; assay: ELISA; design: unit not given beside the values
[29] = target: T1, SARS-CoV-2 Spike ectodomain (tri-S), …; assay: tri-S/ACE2 blocking ELISA

Binder | AUC (RBD bind.) [2] | AUC [3] | AUC (RBD bind.) [3] | AUC (RBD bind.) [4] | triS Capt-ELISA [5] | ELISA OD [6] [OD] | triS ELISA (AUC) [6] [AUC] | Kd [7] [nM] | AUC (RBD block.) [8] | AUC (RBD block.) [9] | AUC (RBD block.) [10] | AUC (RBD block.) [11] | AUC (RBD block.) [12] | AUC (RBD block.) [13] | % inhibition (competition) [14] | % inhibition (competition) [15] | % inhibition (competition) [16] | % inhibition (competition) [17] | % inhibition (competition) [18] | AUC of blocking [19] | other results
Cv2.5213 (recombinant human IgG1) (antibody) heavy: EVQLVESGGGLIQPGGSLRLSCAASGFTVSSNYMSWVRQAPGKGLEWVSLIYSGGSTYYADSVKGRFTISRDNSKNTLYLQMNSLRAEDTAVYYCARDLNYYGMDVWGQGATVTVSSASTKGPSVFPLAPSSKSTSGGTAALGCLVKDYFPEPVTVSWNSGALTSGVHTFPAVLQSSGLYSLSSVVTVPSSSLGTQTYICNVNHKPSNTKVDKKVEPKSCDKTHTCPPCPAPELLGGPSVFLFPPKPKDTLMISRTPEVTCVVVDVSHEDPEVKFNWYVDGVEVHNAKTKPREEQYNSTYRVVSVLTVLHQDWLNGKEYKCKVSNKALPAPIEKTISKAKQPREPQVYTLPPSRDELTKNQVSLTCLVKGFYPSDIAVEWESNGQPENNYKTTPPVLDSDGSFFLYSKLTVDKSRWQQGNVFSCSVMHEALHNHYTQKSLSLSPGK light: not shown | 13 | 1 | 2 | 9 | 2.1 | 3.8 | 14.2 | 6.54 | 45 | 18 | 9 | 22 | 9 | 4 | 81 | 84 | 81 | 98 | 90 | 181 | EC50 (read off the curve) [1]: 0.07 µg/mL; ACE2 Block (%) [20]: 90%; EC50 [21]: 0.22 µg/mL
Cv2.1353 (recombinant human IgG1) (antibody) heavy: EVQLVESGGGLVQPGGSLRLSCAASGVTVSSNYMNWVRQAPGKGLEWVSVIYSGGSTFYADSVKGRFIISRDNSKNTLYLQMNSLKTEDTAVYYCARDLGPMGFDIWGQGTMVTVSSASTKGPSVFPLAPSSKSTSGGTAALGCLVKDYFPEPVTVSWNSGALTSGVHTFPAVLQSSGLYSLSSVVTVPSSSLGTQTYICNVNHKPSNTKVDKKVEPKSCDKTHTCPPCPAPELLGGPSVFLFPPKPKDTLMISRTPEVTCVVVDVSHEDPEVKFNWYVDGVEVHNAKTKPREEQYNSTYRVVSVLTVLHQDWLNGKEYKCKVSNKALPAPIEKTISKAKQPREPQVYTLPPSRDELTKNQVSLTCLVKGFYPSDIAVEWESNGQPENNYKTTPPVLDSDGSFFLYSKLTVDKSRWQQGNVFSCSVMHEALHNHYTQKSLSLSPGK light: DIQMTQSPSFLSASVGDRVTITCRASQGISSYLAWYQQKPGKAPKLLIYAASTLQSGVPSRFSGSGSGTEFTLTISSLQPEDFATYYCQQLNSDPPVTFGPGTKVDIKRTVAAPSVFIFPPSDEQLKSGTASVVCLLNNFYPREAKVQWKVDNALQSGNSQESVTEQDSKDSTYSLSSTLTLSKADYEKHKVYACEVTHQGLSSPVTKSFNRGEC | 12 | 13 | 12 | 13 | 2.2 | 3.5 | 14 | 2.22 | 203 | 62 | 66 | 102 | 31 | 33 | 86 | 88 | 88 | 97 | 90 | 156 | ACE2 Block (%) [20]: 92%; EC50 [21]: 0.26 µg/mL
Cv2.3235 (recombinant human IgG1) (antibody) heavy: EVQLVESGGGLIQPGGSLRLSCAASGFTVSRNYMSWVRQAPGKGLEWVSVIYSGGSTFYADSVKGRFTISRDNSKNTLYLQMNSLRAEDTAVYYCARDGDYYGMDVWGQGTTVTVSSASTKGPSVFPLAPSSKSTSGGTAALGCLVKDYFPEPVTVSWNSGALTSGVHTFPAVLQSSGLYSLSSVVTVPSSSLGTQTYICNVNHKPSNTKVDKKVEPKSCDKTHTCPPCPAPELLGGPSVFLFPPKPKDTLMISRTPEVTCVVVDVSHEDPEVKFNWYVDGVEVHNAKTKPREEQYNSTYRVVSVLTVLHQDWLNGKEYKCKVSNKALPAPIEKTISKAKQPREPQVYTLPPSRDELTKNQVSLTCLVKGFYPSDIAVEWESNGQPENNYKTTPPVLDSDGSFFLYSKLTVDKSRWQQGNVFSCSVMHEALHNHYTQKSLSLSPGK light: DIQMTQSPSFLSASVGDRVTITCRASQGISSFLAWYQQKPGKAPKLLIYGASTLQSGVTSRFSGSGSGTEFTLTISSLQPEDFATYYCQRLDSYPPITFGQGTRLEIKRTVAAPSVFIFPPSDEQLKSGTASVVCLLNNFYPREAKVQWKVDNALQSGNSQESVTEQDSKDSTYSLSSTLTLSKADYEKHKVYACEVTHQGLSSPVTKSFNRGEC | 13 | 1 | 1 | 2 | 1 | 3.6 | 13.2 | 5.37 | 30 | 25 | 4 | 15 | 13 | 2 | 34 | 56 | 60 | 93 | 67 | 164 | ACE2 Block (%) [20]: 78%; EC50 [21]: 0.47 µg/mL
COV2-2130 (antibody, V domains shown) VH: EVQLVESGGGLVKPGGSLRLSCAASGFTFRDVWMSWVRQAPGKGLEWVGRIKSKIDGGTTDYAAPVKGRFTISRDDSKNTLYLQMNSLKTEDTAVYYCTTAGSYYYDTVGPGLPEGKFDYWGQGTLVTVSS VL: not shown |  |  |  |  |  |  |  |  |  |  |  |  |  |  |  |  |  |  |  |  | AUC [22]: 3; AUC [23]: 3; AUC [24]: 3; % binding inhibition [25]: 85%; % binding inhibition [26]: 96%; % binding inhibition [27]: 90%
ADG-2 (antibody, V domains shown) VH: EVQLVESGGGLVKPGGSLRLSCAASGFTFSSYYMNWVRQAPGKGLEWVSSISEDGYSTYYPDSLKGRFTISRDSAKNSLYLQMNSLRADDTAVYYCARDFSGHTAWAGTGFEYWGQGTLVTVSS VL: QSVLTQPPSVSGAPGQRITISCTGSSSNIGAGYDVHWYQQLPGTAPKLLIYGSSSRNSGVPDRFSGSKSGTSASLAITGLQAEDEADYYCQSYDSSLSVLYTFGTGTKVTVL |  |  |  |  |  |  |  |  |  |  |  |  |  |  |  |  |  |  |  |  | AUC [22]: 3; AUC [23]: 3; AUC [24]: 3; AUC [28]: 3; % binding inhibition [25]: 92%; % binding inhibition [26]: 95%; % binding inhibition [27]: 89%; % binding inhibition [29]: 96%
